Data set [1] deals with hiPSC-CMs. Briefly: hiPSC-CM calcium analysis (FLIPR Tetra). The class given is cell-based, human. To be noted: any evaluated concentration (1 nM - 1 μM). The method, then:
hiPSC-CM calcium analysis. Cardiomyocytes were replated (2×10^4 per well) in 384-well plates (CellBIND black with clear bottom, Corning) and cultured for 7 days in RPMI+B27™. On the day of the experiment, the cells were loaded for 1.5 h at 37° C. with FLIPR calcium 4 dye (Molecular Devices) diluted in HBSS pH 7.4. After loading, the plate was transferred to a FLIPR Tetra fluorescent plate reader (Molecular Devices). Calcium transients were measured with excitation wavelengths at 470-495 nm and emission at 515-575 nm. For each plate, the camera gain and intensity were adjusted to optimize signal intensity. Data for each well were expressed as normalized arbitrary fluorescence units. All data were acquired at 0.5 s per read, with baseline measurements for 45 s followed by at least 100 s of data collection after each peptide addition. Peptide solutions (in HBSS pH 7.4) were added to each well to give a final concentration of 1 nM, 10 nM, 100 nM, or 1 μM. Calcium amplitude, maximum calcium, minimum calcium, and spontaneous beating rate were analysed using ScreenWorks software (Molecular Devices) and normalized to baseline measurements.
Replated hiPSC-CMs were loaded with a fluorescent calcium dye and calcium transients were recorded before and after peptide addition.

In data set [2] the test system is hiPSC-CMs. Briefly: In vitro acidosis injury of hiPSC-CMs, cell death (LDH). The class given is cell-based, human. To be noted: for cell death: 20 nM overnight. The source says: In vitro ischemia-acidosis injury model with hiPSC-CMs. Differentiated cardiomyocytes were replated on either day 15 or day 17 of differentiation for in vitro ischemia/acidosis assays. At the time of replating, a subset of cells (˜500,000) was set aside for flow cytometry analysis of cardiomyocyte purity (see supplemental methods). For all experiments, only cell preparations with >80% sarcomeric α-actinin-positive cardiomyocytes were used. After re-plating, the cells were maintained for an additional 7 days in RPMI+B27™. To prepare media for ischemia/acidosis injury, 10×HBSS without sodium bicarbonate (Sigma) was diluted to 1× concentration in sterile tissue culture-grade water. Solutions were buffered with either 12 mM HEPES (for pH 7.4 media, Sigma Aldrich) or 12 mM MES (for pH <6.5, Sigma Aldrich) and the pH adjusted accordingly with 1 M NaOH. The medium was sterile filtered with 0.22 μm syringe filters (Millipore). […] For reperfusion experiments, the medium was replaced with HBSS pH 7.4 (with or without peptide) after overnight incubation and cultured for 1 h under normoxic conditions. […] For all cell culture experiments, percent cell death was calculated using low and high controls. For low control (LC), cardiomyocytes were cultured overnight in standard culture media (RPMI+B27™). For high control (HC), cells were cultured in RPMI+B27™ containing 1% Triton™ X-100 (Sigma-Aldrich).
To assess whether ASIC1a inhibition is cardioprotective in hiPSC-CMs, the inventors evaluated cell death in response to in vitro acidosis, induced by culturing hiPSC-CMs in Hank's […] (HBSS) with pH adjusted to pH 7.4, 6.0, or 5.0. […] To mimic ischemia/acidosis in vitro, hiPSC-CMs were incubated overnight in combined hypoxic (0.5% O2) and acidic (pH 5.0) conditions with or without peptide.

The subject of data set [3] is hiPSC-CMs. Briefly: In vitro ischemia/acidosis with reperfusion in hiPSC-CMs, cell death (LDH). The class given is cell-based, human. To be noted: 10 nM; 18 h hypoxia (0.5% O2) pH 5.0, then 1 h pH 7.4 normoxia. The text has this:
In vitro ischemia-acidosis injury model with hiPSC-CMs. Differentiated cardiomyocytes were replated on either day 15 or day 17 of differentiation for in vitro ischemia/acidosis assays. At the time of replating, a subset of cells (˜500,000) was set aside for flow cytometry analysis of cardiomyocyte purity (see supplemental methods). For all experiments, only cell preparations with >80% sarcomeric α-actinin-positive cardiomyocytes were used. After re-plating, the cells were maintained for an additional 7 days in RPMI+B27™. To prepare media for ischemia/acidosis injury, 10×HBSS without sodium bicarbonate (Sigma) was diluted to 1× concentration in sterile tissue culture-grade water. Solutions were buffered with either 12 mM HEPES (for pH 7.4 media, Sigma Aldrich) or 12 mM MES (for pH <6.5, Sigma Aldrich) and the pH adjusted accordingly with 1 M NaOH. The medium was sterile filtered with 0.22 μm syringe filters (Millipore). […] For all cell culture experiments, percent cell death was calculated using low and high controls. […]
To assess whether ASIC1a inhibition is cardioprotective in hiPSC-CMs, the inventors evaluated cell death in response to in vitro acidosis, induced by culturing hiPSC-CMs in Hank's […] (HBSS) with pH adjusted to pH 7.4, 6.0, or 5.0. […]

A further data set deals with T1, ASIC1a (Homo sapiens, UniProt P78348).
T1 sequence (P78348 1-528): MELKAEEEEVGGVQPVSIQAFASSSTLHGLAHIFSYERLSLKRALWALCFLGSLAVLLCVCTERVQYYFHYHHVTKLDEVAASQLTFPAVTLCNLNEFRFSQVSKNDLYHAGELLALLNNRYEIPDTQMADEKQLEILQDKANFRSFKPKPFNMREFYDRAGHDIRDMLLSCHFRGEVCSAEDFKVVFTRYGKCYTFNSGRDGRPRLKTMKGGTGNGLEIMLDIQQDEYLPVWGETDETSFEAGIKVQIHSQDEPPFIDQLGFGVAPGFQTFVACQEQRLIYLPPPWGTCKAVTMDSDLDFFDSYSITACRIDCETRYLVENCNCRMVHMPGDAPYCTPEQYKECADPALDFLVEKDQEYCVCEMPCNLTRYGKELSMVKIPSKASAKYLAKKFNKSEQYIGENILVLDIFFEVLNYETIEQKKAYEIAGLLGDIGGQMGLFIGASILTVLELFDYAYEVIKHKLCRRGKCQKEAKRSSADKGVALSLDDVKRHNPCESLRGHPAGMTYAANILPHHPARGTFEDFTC
To be noted: read-out: IC50, inhibitor of ASIC1a; cited from earlier work.

In data set [4] the test system is Langendorff-perfused isolated mouse hearts. Briefly: IRI in Langendorff-perfused isolated mouse hearts.
Method: IRI in Langendorff-perfused mouse hearts. […] Mice (12-14 weeks) were anesthetized via an intraperitoneal injection of 10 mg/mL ketamine and 1.6 mg/mL xylazil. The heart was excised via thoracotomy and the aorta cannulated. […] Temperature was continuously measured with thermocouple needle microprobes (SDR Scientific) and maintained at 37° C. with circulating water baths. Contractile function was measured via a fluid-filled balloon inserted in the left ventricle and connected to a pressure transducer (ADInstruments Pty Ltd.). Coronary flow was measured with an in-line Doppler flow probe positioned above the aortic cannulae (Transonic Systems Inc.). All functional data were recorded on a four-channel MacLab system (ADInstruments Pty Ltd.). Following 15-30 min of equilibration, hearts were switched to ventricular pacing at 420 beats/min (BPM) using a SD9 stimulator (Grass Instruments, Inc.). Baseline measurements were made for 10-20 min followed by 25 min of global normothermic ischemia and 45 min of reperfusion. Pacing was stopped during ischemia and resumed after 15 min of reperfusion. For peptide-treated experimental groups, 1 μM peptide solution was infused with a syringe pump (World Precision Instruments, LLC.) into the buffer, directly upstream of the cannula, at a rate of 1% of CF, for a final working concentration of 10 nM. Peptide was infused for 10 min prior to the onset of ischemia and during the first 15 min of reperfusion.

In the case of PcTx1, in the data set on hiPSC-CMs [1], the calcium amplitudes result is given as “Neither Hi1a nor PcTx1 altered” and the spontaneous beating rate entry was “Neither Hi1a nor PcTx1 altered”. In the data set on hiPSC-CMs [2] (overnight at pH 5.0, even at concentrations as low as 1 nM), the “cardioprotection against cell death (LDH)” value is given as “nearly complete cardioprotection”. In addition, in the data set on hiPSC-CMs [3], the cell death result is reported as “blocked”. Moreover, in the data set with ASIC1a, the IC50 was roughly 1 nM. The EDP in data set [4] (after 45 min reperfusion, 10 nM peptide) came to 33±8 mmHg. Further, in data set [4] (first 5 min of reperfusion), the “reactive hyperaemia during early reperfusion (increased CF)” value is “significant reactive hyperaemia”. Moreover, in data set [4] (first 10 min of peptide infusion prior to ischemia, 10 nM), the baseline contractile function result was “no effect”.

B1: MitTx (protein)
chain 1: QIRPAFCYEDPPFFQKCGAFVDSYYFNRSRITCVHFFYGQCDVNQNHFTTMSECNRVCHG
chain 2: NLNQFRLMIKCTNDRVWADFVDYGCYCVARDSNTPVDDLDRCCQAQKQCYDEAVKVHGCKPLVMFYSFECRYLASDLDCSGNNTKCRNFVCNCDRTATLCILTATYNRNNHKIDPSRCQ
Take B1: the cell death result with hiPSC-CMs [2] (pH 6.0) and in the data set with hiPSC-CMs [2] (pH 7.4) was “increased cell death” throughout.

Broadly, the IC50 is the concentration that inhibits the measured activity by half.

These data come from US12173322B2, “Genome-edited induced pluripotent stem cells, and cells derived therefrom, and uses thereof” (priority 2020, dated 2024).
